In paper PMC6921004, “Structural Characterization of Full-Length Human Dehydrodolichyl Diphosphate Synthase Using an Integrative Computational and Experimental Approach” (Biomolecules, 2019):

What was measured:
purified protein [1] = substrate: C=C(C)CCO[P@@](=O)(O)OP(=O)(O)O; assay: purified protein; conditions: 10 μM FPP, 0.5 μM protein, labelled compound (^14C), Tris-HCl pH 7.5, 150 mM NaCl, 20 mM β-mercaptoethanol, 0.1% Triton X-100, 30 °C, homodimer without NgBR
purified protein [2] = substrate: CC(C)=CCC/C(C)=C/CC/C(C)=C/CO[P@@](=O)(O)OP(=O)(O)O; assay: purified protein; assay type: biochemical, Homo sapiens; conditions: 20 μM ^14C-IPP, 0.1 μM protein, Tris-HCl pH 7.5, 150 mM NaCl, 20 mM β-mercaptoethanol, 0.1% Triton X-100, 30 °C, homodimer without NgBR
[3] = molecular target: the molecule itself; assay: SEC-MALS; Superdex-200 increase 10/300 GL; Tris-HCl pH 7.5, 150 mM NaCl, 20 mM beta-mercaptoethanol, 0.02% Triton X-100; sample 2 mg/mL, 50 uL

Protein	Km (purified protein [1])	kcat (purified protein [1])	Km (purified protein [2])	kcat (purified protein [2])	stoichiometry N [3]
human dehydrodolichyl diphosphate synthase (DHDDS), full-length homodimer (Homo sapiens) (protein, full-length; expressed in E. coli T7 express from pET-32b as thioredoxin-6xHis fusion, tag and fusion removed by TEV protease; without NgBR) MSWIKEGELSLWERFCANIIKAGPMPKHIAFIMDGNRRYAKKCQVERQEGHSQGFNKLAETLRWCLNLGILEVTVYAFSIENFKRSKSEVDGLMDLARQKFSRLMEEKEKLQKHGVCIRVLGDLHLLPLDLQELIAQAVQATKNYNKCFLNVCFAYTSRHEISNAVREMAWGVEQGLLDPSDISESLLDKCLYTNRSPHPDILIRTSGEVRLSDFLLWQTSHSCLVFQPVLWPEYTFWNLFEAILQFQMNHSVLQKARDMYAEERKRQQLERDQATVTEQLLREGLQASGDAQLRRTRLHKLSARREERVQGFLQALELKRADWLARLGTASA	9.3 ± 2.8 µM	0.0011 ± 0.0001 s⁻¹	0.45 ± 0.1 µM	0.0011 ± 0.0001 s⁻¹	
Dehydrodolichyl diphosphate synthase (DHDDS), full-length human (enzyme, UniProt Q86SQ9 1-333, looked up, Dehydrodolichyl diphosphate synthase (DHDDS), human, UniProt Q86SQ9, full length; synthesized gene cloned into pET-32b between NdeI and BamHI; Expressed as a TRX fusion with a 6xHis-tag and a TEV site; the tag and the fusion were removed by TEV protease; also called hDHDDS; human DHDDS; source: E. coli T7 express, purified (TALON-Superflow, TEV cleavage, second TALON-Superflow, Superdex-200 SEC)) MSWIKEGELSLWERFCANIIKAGPMPKHIAFIMDGNRRYAKKCQVERQEGHSQGFNKLAETLRWCLNLGILEVTVYAFSIENFKRSKSEVDGLMDLARQKFSRLMEEKEKLQKHGVCIRVLGDLHLLPLDLQELIAQAVQATKNYNKCFLNVCFAYTSRHEISNAVREMAWGVEQGLLDPSDISESLLDKCLYTNRSPHPDILIRTSGEVRLSDFLLWQTSHSCLVFQPVLWPEYTFWNLFEAILQFQMNHSVLQKARDMYAEERKRQQLERDQATVTEQLLREGLQASGDAQLRRTRLHKLSARREERVQGFLQALELKRADWLARLGTASA					2
